# According to PMC8362844 (Molecular pharmaceutics, 2020):
# B1: recombinant human alpha-N-acetylglucosamine-6-sulfatase with C-terminal c-myc tag (enzyme, UniProt P15586-1 37-552, looked up)
# chain: VFGVAAGTRRPNVVLLLTDDQDEVLGGMTPLKKTKALIGEMGMTFSSAYVPSALCCPSRASILTGKYPHNHHVVNNTLEGNCSSKSWQKIQEPNTFPAILRSMCGYQTFFAGKYLNEYGAPDAGGLEHVPLGWSYWYALEKNSKYYNYTLSINGKARKHGENYSVDYLTDVLANVSLDFLDYKSNFEPFFMMIATPAPHSPWTAAPQYQKAFQNVFAPRNKNFNIHGTNKHWLIRQAKTPMTNSSIQFLDNAFRKRWQTLLSVDDLVEKLVKRLEFTGELNNTYIFYTSDNGYHTGQFSLPIDKRQLYEFDIKVPLLVRGPGIKPNQTSKMLVANIDLGPTILDIAGYDLNKTQMDGMSLLPILRGASNLTWRSDVLVEYQGEGRNVTDPTCPSLSPGVSQCFPDCVCEDAYNNTYACVRTMSALWNLQYCEFDDQEVFVEVYNLTADPDQITNIAKTIDPELLGKMNYRLMMLQSCSGPTCRTPGVFDPGYRFDPRLMFSNRGSVRTRRFSKHLL
# modifications: N-glycosylated with high-mannose residues; mannose-6 phosphorylated at approximately 0.87% (W/W)
# Biological target: the molecule itself
# Assay: native gel or EMSA
protein,measurement,value
B1,stoichiometry N,2
